# Key:
# human FcRn (human) = human FcRn (human) (UniProt P55899); assay: SPR; Biacore T200; FcRn immobilised on CM5 sensor chip, IVIG (from 500 nM) or rhIgG1 Fc (from 250 nM) injected, two-fold serial dilution; regeneration 100 mM Tris-HCl; multicycle kinetics model (methods), steady state equilibrium model (legend of Fig. 4)
# [1] = biological target: human FcγRIIIA F176V (human) (UniProt P08637); assay: SPR; Biacore T200; FcγRs immobilised on CM5 sensor chip, IVIG or rhIgG1 Fc injected; three-fold serial dilution (FcγRIA from 300 nM; FcγRIIA from 20 μM; FcγRIIIA from 3 μM IVIG and 300 nM hIgG1 Fc); regeneration 10 mM glycine; single cycle kinetics model
# human FcγRIA (human) = human FcγRIA (human) (UniProt P12314); assay: as above
# Chain of UniProt P12314 (P12314 16-292): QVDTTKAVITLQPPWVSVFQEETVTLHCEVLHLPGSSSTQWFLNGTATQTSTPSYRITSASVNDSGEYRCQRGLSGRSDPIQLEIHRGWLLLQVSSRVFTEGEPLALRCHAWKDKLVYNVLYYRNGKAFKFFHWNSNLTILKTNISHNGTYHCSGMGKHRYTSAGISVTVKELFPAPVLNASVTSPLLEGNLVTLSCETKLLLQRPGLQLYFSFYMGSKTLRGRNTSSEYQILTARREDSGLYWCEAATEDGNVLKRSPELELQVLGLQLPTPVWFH
# Chain of UniProt P55899 (P55899 24-297, chain 1 of 2): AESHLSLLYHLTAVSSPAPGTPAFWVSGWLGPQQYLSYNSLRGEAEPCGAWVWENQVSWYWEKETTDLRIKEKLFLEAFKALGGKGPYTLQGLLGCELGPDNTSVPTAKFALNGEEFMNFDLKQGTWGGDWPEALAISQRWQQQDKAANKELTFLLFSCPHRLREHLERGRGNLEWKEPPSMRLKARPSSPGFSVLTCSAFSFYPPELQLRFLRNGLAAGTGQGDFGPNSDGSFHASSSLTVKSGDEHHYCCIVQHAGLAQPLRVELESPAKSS
# Chain of UniProt P55899 (P61769 21-119, chain 2 of 2, further chain): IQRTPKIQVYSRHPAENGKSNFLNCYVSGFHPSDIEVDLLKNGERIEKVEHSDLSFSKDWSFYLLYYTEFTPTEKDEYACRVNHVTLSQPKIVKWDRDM
# Chain of UniProt P08637 (P08637 17-208 F176V): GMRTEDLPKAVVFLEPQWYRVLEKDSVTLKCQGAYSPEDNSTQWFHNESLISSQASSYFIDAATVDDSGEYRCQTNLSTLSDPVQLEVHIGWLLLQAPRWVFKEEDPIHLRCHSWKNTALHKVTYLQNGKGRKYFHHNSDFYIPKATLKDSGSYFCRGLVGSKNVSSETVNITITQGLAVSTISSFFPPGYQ
substance,measurement,setting,value
recombinant human IgG1 Fc derived from ALB::hIgG1 Fc genome-edited chickens (domain or fragment),Kd,human FcRn (human),9.09 nM
same,Kd,[1],9.98 nM
same,Kd,human FcγRIA (human),1.28 nM

# From article PMC10235082
